The results in this text go back to publication PMC7109055.

For assay [1], the target named is His6-VanSSC (full-length VanS sensor histidine kinase from Streptomyces coelicolor) (Streptomyces coelicolor) (UniProt Q9X942). Nature of the assay: native gel or EMSA. On the technique in general: Mobility shift assays separate free from complexed probe on a gel.
The target is the same in assay [2]. Briefly: SEC; analytical gel filtration on Superose 12 10/300; 20 mM HEPES pH 7.8, 200 mM NaCl (legend: 300 mM NaCl), 0.075% DPC; elution volume compared with protein standards. (In gel filtration, larger molecules generally elute earlier.)

Regarding “His6-VanSSC (full-length VanS sensor histidine kinase from Streptomyces coelicolor) (from UniProt Q9X942 1-364) (enzyme)”, the stoichiometry N in assay [1] and in assay [2] was 2 in each case.

The term stoichiometry N denotes a count of units in the complex or per binding partner.
